Laboratory results from patent US20070042959A1, “Thrombin-inhibiting peptides” (priority 1997, published 2007).

How the values were obtained:
[1] = clinical studies; easily overdosed; cited from earlier work
[2] = tested on: blood clotting (human citrate plasma); experiment: activated partial thromboplastin time (APTT), action on blood clotting; type: biochemical; conditions: at low concentrations; pre-clinical data, see sample application 1
Description: The action of triabin and hirudin on blood clotting was measured by determining the activated partial thromboplastin time (APTT). 100 μl of human citrate plasma, 10 μl of inhibitor (triabin or hirudin) and 100 μl of APTT reagent (pathromtin from the Behring Company) were incubated for 3 minutes at 37° C. After 100 μl of a 25 mmol CaCl2 solution was added, the time until clots formed was measured. The measuring was carried out in a fibrometer of the Sarstedt Company. The results are indicated in an extension of the clotting time, which was measured without adding inhibitor.

In the case of hirudin, the bleeding on overdosing [1] is given as “severe bleeding complications” and the inhibition of clotting [2] is given as “inhibits at low concentrations”.
